Data published in patent US20090155236A1, “Peptide sequence for modulation of delta protein kinase c” (NATIONAL INSTITUES OF HEALTH (NIH), U.S. DEPT OF HEALTH AND …, priority 2004, published 2009).

Legend:
[1] = biological target: recombinant full-length delta PKC (rat); test: ELISA, presence of calcium
[2] = biological target: recombinant full-length delta PKC (rat); test: ELISA, absence of calcium
[3] = biological target: annexin V protein (human) (UniProt P08758); test: ELISA, annexin V immobilised, absence of calcium
Chain of annexin V protein (human) (P08758 2-320 limits assumed): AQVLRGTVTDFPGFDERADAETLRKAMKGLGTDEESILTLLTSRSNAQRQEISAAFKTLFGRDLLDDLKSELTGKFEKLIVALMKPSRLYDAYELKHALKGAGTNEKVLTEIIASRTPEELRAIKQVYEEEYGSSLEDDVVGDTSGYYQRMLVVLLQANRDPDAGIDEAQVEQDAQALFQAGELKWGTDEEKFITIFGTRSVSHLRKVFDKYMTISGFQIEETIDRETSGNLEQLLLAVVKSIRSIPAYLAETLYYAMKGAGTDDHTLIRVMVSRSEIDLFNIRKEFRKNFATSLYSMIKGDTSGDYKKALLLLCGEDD

[4] = biological target: annexin V protein (human) (UniProt P08758); test: ELISA, annexin V immobilised, presence of calcium

percent binding [1] [%] | percent binding [2] [%] | percent binding [3] [%] | percent binding [4] [%] | Substance
100 | 75 | – | – | annexin V protein (from UniProt P08758 2-320)
– | – | 55 | 100 | delta V1 PKC (from UniProt P09215 1-160)
